For the assay, the target named is IL13Rα2 (human) (UniProt Q14627). Put plainly: cell-based or functional assay.

In patent US20160230226A1 one finds IL-13 concentration needed for the same CCL26 or periostin gene induction in IMR90 cells pre-stimulated with TNFα (elevated IL13Rα2) versus not pre-stimulated data, which are given here for one substance.

Chain of UniProt Q14627 (Q14627 27-380): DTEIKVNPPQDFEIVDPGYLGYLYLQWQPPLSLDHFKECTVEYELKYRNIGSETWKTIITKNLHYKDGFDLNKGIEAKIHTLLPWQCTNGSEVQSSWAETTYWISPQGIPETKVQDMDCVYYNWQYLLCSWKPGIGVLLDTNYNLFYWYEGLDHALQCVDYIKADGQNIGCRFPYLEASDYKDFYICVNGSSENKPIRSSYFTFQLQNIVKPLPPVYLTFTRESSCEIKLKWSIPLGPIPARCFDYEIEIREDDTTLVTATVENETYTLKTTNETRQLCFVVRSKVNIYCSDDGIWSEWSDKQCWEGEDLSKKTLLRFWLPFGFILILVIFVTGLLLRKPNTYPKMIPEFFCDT

“IL-13 (from UniProt P35225 35-146) (ligand)”: the IL-13 concentration needed for the same CCL26 or periostin gene induction in IMR90 cells pre-stimulated with TNFα (elevated IL13Rα2) versus not pre-stimulated worked out at 10 fold.
